Laboratory results published in patent US20240368565A1 (PROMEGA, published 2024).

How the values were obtained:
[1] = target: T1, Biotin-HaloTag[3-19] (I2R)-4xGly/Ser-VS-HiBiT (N-terminal biotin); experiment: BLI; biotin-peptide on streptavidin probe; PBST, 25 C
T1 construct: Synthetic peptide; also called HaloTag[3-19](12R)-4×Gly/Ser-VS-HiBiT; DualTag peptide
T1 peptide: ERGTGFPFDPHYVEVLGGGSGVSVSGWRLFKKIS

[2] = target: Aga2-15xGly/Ser-EGFP-4xGly/Ser-HaloTag[3-19]-4xGly/Ser-…; experiment: flow cytometry of yeast displaying the tag; reporter bound, washed, then JF549 HaloTag ligand
[3] = target: Aga2-15xGly/Ser-EGFP-4xGly/Ser-HaloTag[3-19]-4xGly/Ser-…; experiment: as above; remark: listed apart in the source
[4] = target: Aga2-15xGly/Ser-EGFP-4xGly/Ser-HaloTag[3-19]-4xGly/Ser-…; experiment: as above; remark: listed apart in the source
[5] = target: Aga2-15xGly/Ser-4xGly/Ser-HaloTag[3-19]-4xGly/Ser-VS-HiBiT; experiment: as above
[6] = target: Aga2-15xGly/Ser-EGFP-4xGly/Ser-HaloTag[3-19]-4xGly/Ser-VS-HiBiT; experiment: as above

B1: HaloTag[22-297](M2F)-12xGly/Ser-LgBiT-3xGly/Ser-6xHis (other)
chain: MFHYVDVGPRDGTPVLFLHGNPTSSYVWRNIIPHVAPTHRCIAPDLIGMGKSDKPDLGYFFDDHVRFMDAFIEALGLEEVVLVIHDWGSALGFHWAKRNPERVKGIAFMEFIRPIPTWDEWPEFARETFQAFRTTDVGRKLIIDQNVFIEGTLPMGVVRPLTEVEMDHYREPFLNPVDREPLWRFPNELPIAGEPANIVALVEEYMDWLHQSPVPKLLFWGTPGVLIPPAEAARLAKSLPNCKAVDIGPGLNLLQEDNPDLIGSEIARWLSTLEISGGSGGSGGGGSGGMVFTLEDFVGDWEQTAAYNLDQVLEQGGVSSLLQNLAVSVTPIQRIVRSGENALKIDIHVIIPYEGLSADQMAQIEEVFKVVYPVDDHHFKVILPYGTLVIDGVTPNMLNYFGRPYEGIAVFDGKKITVTGTLWNGNKIIDERLITPDGSMLFRVTINSGSGHHHHHH
notes: Purified tandem polypeptide reporter (large split-HaloTag fragment fused to LgBiT); also called Reporter
Kd [1]: 1.61 nM | koff [1]: 8.34e-05 s⁻¹ | kon [1]: 51900 M⁻¹ s⁻¹ | percent of cells in the JF549+ gate [2]: 44.2% | percent of cells in the JF549+ gate [3]: 44.8% | percent of cells in the JF549+ gate [4]: 6.96% | percent of cells in the JF549+ gate [5]: 48.9% | percent of cells in the JF549+ gate [6]: 46.4%
